In patent US20090060916A1 (published 2009):
“And” between values parts separate entries of the source, which are not always exact repeats. Equal values may be shown once. Each block holds one binder with its values, some of them ahead of it.

Key:
human IL-4 [1] = molecular target: T1, human IL-4 (human, UniProt P05112 25-153, biotinylated in the receptor binding assay and on the Biacore chip); experiment: IL-4 RBA: ELISA, IL-4R/Fc coated, biotinylated IL-4
T1 construct: also called interleukin-4; biotinylated IL-4
T1 sequence (looked up): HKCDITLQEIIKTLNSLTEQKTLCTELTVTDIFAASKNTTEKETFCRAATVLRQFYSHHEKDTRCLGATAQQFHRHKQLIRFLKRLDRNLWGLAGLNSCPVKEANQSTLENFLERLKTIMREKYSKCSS
Source text: The wells were washed three times with 0.1% (v/v) Tween 20 in PBS, followed by three washes with PBS, before blocking with 2% (w/v) BSA in PBS. […] The reaction was stopped by the addition of HCl and the absorbance read at 450 nm.

human IL-13 [2] = molecular target: T2, human IL-13 (human, UniProt P35225 35-146, biotinylated on the Biacore chip); experiment: IL-13 sandwich ELISA, competition with coating antibody
T2 construct: also called hIL-13; recombinant human IL-13
Protocol: A MAXISORP™ plate (high protein binding ELISA plate, Nunc, Denmark) was coated overnight with 2.5 μg/ml coating antibody (Module Set, Bender MedSystems, Vienna, Austria), then washed once with 0.05% (v/v) Tween 20 in PBS before blocking with 0.5% (w/v) BSA 0.05% (v/v) Tween 20 in PBS. […] The plate was then incubated with TMB substrate (KPL, Gaithersburg, USA), and the reaction was stopped by the addition of HCl and the absorbance read at 450 nm.

human IL-13 [3] = molecular target: T2, human IL-13; experiment: IL-13 receptor I RBA: FMAT beads, IL-13R alpha1/Fc
Protocol: (§1) The plate was incubated for seven hours before being read in the 8200 cellular detection system (Applied Biosystems).

human IL-13 [4] = molecular target: T2, human IL-13; experiment: Biacore SPR, IL-13 surface, before and after DOM10-53-386
Protocol: Analytes were passed over the antigen-coated flow-cell, with in-line referencing against a blank flow-cell, at a flow rate of 30 μl/min in HBS-EP running buffer (Biacore).

human IL-4 [5] = molecular target: T1, human IL-4; experiment: cell-based or functional assay
rhesus IL-4 = molecular target: T3, rhesus IL-4 (rhesus, UniProt P51492 25-153); experiment: inferred from TF-1 proliferation with rhesus IL-4
T3 sequence (looked up): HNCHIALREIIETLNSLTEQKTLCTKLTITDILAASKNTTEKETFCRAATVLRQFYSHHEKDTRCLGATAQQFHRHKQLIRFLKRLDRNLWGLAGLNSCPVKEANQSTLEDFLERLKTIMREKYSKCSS
Protocol: The mixture was incubated for 72 hours at 37° C. 5% CO₂. […] 96® reagent (colorometric reagent for determining viability, Promega, Madison, USA) was then added and the number of cells per well was quantified by measuring the absorbance at 490 nm.
A dose-response of the dAb will determine the ND50 in this set up.

human IL-13 [6] = molecular target: T2, human IL-13; experiment: cell-based or functional assay
cynomolgous IL-13 = cynomolgous IL-13 (cynomolgous, UniProt Q0PW92 19-132, The Biacore assay used biotinylated cIL-13 according to our card. The biotin cannot be carried in the letters.); experiment: cell-based or functional assay
human IL-13 [7] = molecular target: T2, human IL-13; experiment: IL-13 receptor I RBA: FMAT beads, IL-13R alpha1/Fc; remark: listed apart in the source
Protocol: as §1
This molecule was PEGylated via the C terminus using PEG-Maleimide with a branched 40K PEG2-MAL moiety.

human IL-13 [8] = molecular target: T2, human IL-13; experiment: assay not named ('Potency IC50')

T2 sequence (P35225 35-146 limits assumed): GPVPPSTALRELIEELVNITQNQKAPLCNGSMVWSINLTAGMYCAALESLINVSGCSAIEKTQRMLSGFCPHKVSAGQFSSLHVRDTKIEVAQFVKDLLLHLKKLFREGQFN
Sequence of cynomolgous IL-13 (Q0PW92 entry or part of it limits assumed, form in doubt): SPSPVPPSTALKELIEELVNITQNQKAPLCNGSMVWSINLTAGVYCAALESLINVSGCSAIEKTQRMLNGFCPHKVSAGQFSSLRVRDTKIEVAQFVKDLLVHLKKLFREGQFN

IC50 (human IL-4 [1]): 4.3 nM and 6 nM
EC50 (human IL-13 [2]): 1 nM
B1: DOM9-112-210-DOM10-53-546 (bispecific antibody)
chain: EVQLLESGGGLVQPGGSLRLSCAASGFTFRNFGMGWVRQAPGKGLEWVSWIISSGTETYYADSVKGRFTISRDNSKNTLYLQMNSLRAEDTAVYYCAKSLGRFDYWGQGTLVTVSSASTKGPSGVQLLESGGGLVQPGGSLRLSCAASGFVFPWYDMGWVRQAPGKGLEWVSSIDWKGGKTYYADSVKGRFTISRDNSKNTLYLQMNSLRAEDTAVYYCATAEDEPGYDYWGQGTLVTVSS
notes: in-line fusion, from pDOM5

IC50 (human IL-13 [3]): 600 nM
B2: DOM10-273 (other)
VH: EVQLLESGGGLVQPGGSLRLSCAASGFTFELEEMDWVRQAPGKGLEWVSSISGSGGSTYYADSVKGRFTISRDNSKNTLYLQMNSLRAEDTAVYYCAKAYTGFDYWGQGTLVTVSS
notes: VH dAb

IC50 (human IL-13 [3]): 3000 nM
B3: DOM10-276 (other)
VH: EVQLLESGGGLVQPGGSLRLSCAASGFTFRDYEMDWVRQAPGKGLEWVSSIGPSGSETYYADSVKGRFTISRDNSKNTLYLQMNSLRAEDTAVYYCAKAYTSFDYWGQGTLVTVSS
notes: VH dAb

IC50 (human IL-13 [3]): 1000 nM
B4: DOM10-275 (other)
VH: EVQLLESGGGLVQPGGSLRLSCAASGFTFDREEMDWVRQAPGKGLEWVSTISPSGRKTYYADSVKGRFTISRDNSKNTLYLQMNSLRAEDTAVYYCAKHGTGFDYWGQGTLVTVSS
notes: VH dAb

IC50 (human IL-13 [3]): 6000 nM
B5: DOM10-416 (other)
VH: EVQLLESGGGLVQPGGSLRLSCAASGFTFKGSEMDWVRQAPGKGLEWVSTISADGRETYYADSVKGRFTISRDNSKNTLYLQMNSLRAEDTAVYYCAKSYTSFDYWGQGTLVTVSS
notes: VH dAb

binding result (human IL-13 [4]): binds
B6: DOM10-208 (other)
VL: DIQMTQSPSSLSASVGDRVTITCRASSPITDGLAWYQQKPGKAPKLLIDTGSRLQSGVPSRFSGSGSGTDFTLTISSLQPEDFATYYCRQGAMGSYTFGQGTKVEIKR
notes: Vk dAb

binding result (human IL-13 [4]): binds
B7: DOM10-224 (other)
VL: DIQMTQSPSSLSASVGDRVTITCRASPNIAVDLAWYQQKPGKAPKLLIRGVSRLQSGVPSRFSGSGSGTDFTLTISSLQPEDFATYYCRQGAMGSYTFGQGTKVEIKR
notes: Vk dAb

binding result (human IL-13 [4]): binds
B8: DOM10-236 (other)
VH: EVQLLESGGGLVQPGGSLRLSCAASGFTFPKYDMMWVRQAPGKGLEWVSSIDHLGVNTYYADSVKGRFTISRDNSKNTLYLQMNSLRAEDTAVYYCAKESDWPSFDYWGQGTLVTVSS
notes: VH dAb

average inhibition of HDM induced PBMC proliferation, 100 nM dAb, responding donors (human IL-4 [5]): 34%
B9: DOM9-155-11 (other)
VL: DIQMTQSPSSLSASVGDRVTITCRASRNIGDWLHWYQQKPGKAPKLLIAWASTLDSGVPSRFSGSGSGTDFTLTISSLQPEDFATYYCLQEGWGPPTFGQGTKVEIKR

binding result (rhesus IL-4): binds
B10: DOM9-155-5 (other)
VL: DIQMTQSPSSLSASVGDRVTITCRASLDIGDWLHWYQQKPGKAPKLLIAWASTLDSGVPSRFSGSGSGTDFTLTISSLQPEDFATYYCLQEGWGPPTFGQGTKVEIKR
notes: Vk dAb

EC50, HEK293 STAT6 SEAP reporter assay, hIL-13 (human IL-13 [6]): 2.3 nM
EC50, HEK293 STAT6 SEAP reporter assay, cIL-13 (cynomolgous IL-13): 2 nM
B11: DOM10-275-94 (other)
VH: EVQLLESGGGLVQPGGSLRLSCAASGFTFDVAEMDWVRQAPGKGLEWVSTISPSRRGTYYADSVKGRFTISRDNSKNTLYLQMNSLRAEDTAVYYCAKAYTGRSWWGPGTLVTVSS

EC50, HEK293 STAT6 SEAP reporter assay, hIL-13 (human IL-13 [6]): 2.8 nM
EC50, HEK293 STAT6 SEAP reporter assay, cIL-13 (cynomolgous IL-13): 2.5 nM
B12: DOM10-275-100 (other)
VH: GVQLLESGGGLVQPGGSLRLSCAASGFTFDSAEMDWVRQAPGKGLEWVSTISPSRRGTYYADSVKGRFTISRDNSKNTLYLQMNSLRAEDTAVYYCAKAYTGRSYWGPGTLVTVSS

EC50, HEK293 STAT6 SEAP reporter assay, hIL-13 (human IL-13 [6]): 2.8 nM
EC50, HEK293 STAT6 SEAP reporter assay, cIL-13 (cynomolgous IL-13): 2 nM
B13: DOM10-275-99 (other)
VH: EVHLLESGGGLVQPGGSLRLSCAASGFTFDSAEMDWVRQAPGKGLEWVSTISPSRRGTYYADSVKGRFTISRDNSKNTLYLQMNSLRAEDTAIYYCAKAYTGRSYWGPGTLVTVSS

EC50, HEK293 STAT6 SEAP reporter assay, hIL-13 (human IL-13 [6]): 3.6 nM and 2 nM
EC50, HEK293 STAT6 SEAP reporter assay, cIL-13 (cynomolgous IL-13): 1.8 nM
B14: DOM10-275-101 (other)
VH: GVQLLESGGGLVQPGGSLRLSCVASGFTFDVAEMDWVRQAPGKGLEWVSTISPSRRGTYYADSVKGRFTISRDNSKNTLYLQMNSLRAEDTAVYYCAKAYTGRSLWGPGTLVTVSS

IC50 (human IL-13 [3]): 100 nM
B15: DOM10-176 (other)
VL: DIQMTQSPSSLSASVGDRVTITCRASQWIGPYLNWYQQKPGKAPKLLIYMGSYLQSGVPSRFSGSGSGTDFTLTISSLQPEDFATYYCQQDLYPPYTFGQGTKVEIKR
notes: Vk dAb

IC50 (human IL-13 [7]): 0.033 nM
B16: DOM10-53-343 40K PEG2 MAL (other)
VH: EVQLLESGGGLVQPGGSLRLSCAASGFIFAWYDMGWARQAPGKGLEWVSSIDWHGEVTYYADSVKGRFTISRDNSKNTLYLQMNSLRAEDTAVYYCATAEDEPGYDYWGQGTLVTVSSC
modifications: branched 40K PEG2-MAL on the C-terminal cysteine

binding result (human IL-13 [4]): binds
B17: DOM10-213 (other)
VL: DIQMTQSPSSLSASVGDRVTITCRASQAIPWGLNWYQQKPGKAPKLLIYDVSSLQSGVPSRFSGSGSGTDFTLTISSLQPEDFATYYCQQDIHIPMTFGQGTKVEIKR
notes: Vk dAb

IC50 (human IL-13 [3]): 150 nM
IC50 (human IL-13 [8]): 100 nM
B18: DOM10-53 (other)
VH: GVQLLESGGGLVQPGGSLRLSCAASGFTFAWYDMGWARQAPGKGLEWVSSIDDSGTQTYYADSVKGRFTISRDNSKNTLYLQMNSLRAEDTAVYYCATAERDDTFDYWGQGTLVTVSS
notes: VH dAb

IC50 (human IL-13 [2]): 0.055 nM and 0.03 nM
B19: DOM10-53-396 (other)
VH: GVQLLESGGGLVQPGGSLRLSCAASGFIFAWYDMGWARQAPGKGLEWVSSIGWHGNVTYYADSVKGRFTISRDNSKNTLYLQMNSLRAEDTAVYYCATAEDEPGYDYWGQGTLVTVSS
notes: VH dAb

IC50 (human IL-13 [8]): 20 nM
B20: DOM10-53-612 (other)
VH: GVQLLESGGGLVQPGGSLRLSCAASGFAFAAYDMGWVRQAPGKGLEWVSSIDWKGMETYYADSVKGRFTISRDNSKNTLYLQMNSLRAEDTAVYYCATAEDEPGYDYWGQGTLVTVSS
notes: VH dAb

IC50 (human IL-13 [8]): 0.046 nM
B21: DOM10-53-475 (other)
VH: GVQLLESGGGLVQPGGSLRLSCAASGFTFAWYDMGWVRQAPGKGLEWVSSIDWHGKITYYADSVKGRFTISRDNSKNTLYLQMNSLRAEDTAVYYCATAEDEPGYDYWGQGTLVTVSS
notes: VH dAb

IC50 (human IL-13 [8]): 0.054 nM
B22: DOM10-53-472 (other)
VH: GVQLLESGGGLVQPGGSLRLSCAASGFIFAWYDMKWVRQAPGKGLEWVSSIDWHGKITYYADSVKGRFTISRDNSKNTLYLQMNSLRAEDTAVYYCATAEDEPGYDYWGQGTLVTVSS
notes: VH dAb

IC50 (human IL-13 [8]): 0.34 nM
B23: DOM10-53-531 (other)
VH: GVQLLESGGGLVQPGGSLRLSCAASGFTFAWYDMGWVRQAPGKGLEWVSSIDWKGGKTYYADSVKGRFTISRDNSKNTLYLQMNSLRAEDTAVYYCATAEDEPGYDYWGQGTLVTVSS
notes: VH dAb

IC50 (human IL-13 [8]): 0.29 nM
B24: DOM10-53-434 (other)
VH: GVQLLESGGGLVQPGGSLRLSCAASGFIFAWYDMGWVRQAPGKGLEWVSSIDWKGGKTYYADSVKGRFTISRDNSKNTLYLQMNSLRAEDTAVYYCATAEDEPGYDYWGQGTLVTVSS
notes: VH dAb
